Measurements reported in US20090297438A1, “Human Monoclonal Antibodies to Prostate Specific Membrane Antigen (PSMA)” (priority 2005, published 2009).
“Also recorded” adds a separate entry of the source.

B1: 2F5: human monoclonal anti-PSMA antibody, VH SEQ ID NO: 3, VL SEQ ID NO: 7 (antibody, listed as Homo sapiens, V domains shown)
VH: EVQLVQSGAEVKKPGESLKISCKGSGYSFTSNWIGWVRQMPGKGLEWMGIIYPGDSDTRYSPSFQGQVTISADKSISTAYLQWNSLKASDTAMYYCARQTGFLWSFDLWGRGTLVTVSS
VL: AIQLTQSPSSLSASVGDRVTITCRASQDISSALAWYQQKPGKAPKLLIYDASSLESGVPSRFSGSGSGTDFTLTISSLQPEDFATYYCQQFNSYPLTFGGGTKVEIKIK
B2: 2C6: human monoclonal anti-PSMA antibody, VH SEQ ID NO: 4, VL SEQ ID NO: 8 (antibody, listed as Homo sapiens, V domains shown)
VH: EVQLVQSGSEVKKPGESLKISCKGSGYSFTNYWIGWVRQMPGKGLEWMGIIYPGDSDTRYSPSFQGQVTISADKSISTAYLQWSSLKASDTAMYYCASPGYTSSWTSFDYWGQGTLVTVSS
VL: EIVLTQSPATLSLSPGERATLSCRASQSVSSYLAWYQQKPGQAPRLLIYDASNRATGIPARFSGSGSGTDFTLTISSLEPEDFAVYYCQQRSNWPLFTFGPGTKVDIK
B3: 1C3: human monoclonal anti-PSMA antibody, VH SEQ ID NO: 1, VL SEQ ID NO: 5 (antibody, listed as Homo sapiens, V domains shown)
VH: QVQLVESGGGVVQPGRSLRLSCAASGFTFSSYAMHWVRQAPGKGLEWVAVISYDGNNKYYADSVKGRFTISRDNSKNTLYLQMNSLRAEDTAVYYCARAVPWGSRYYYYGMDVWGQGTTVTVSS
VL: AIQLTQSPSSLSASVGDRVTITCRASQGISSALAWYQQKSGKAPKLLIFDASSLESGVPSRFSGSGSGTDFTLTISSLQPEDFATYYCQQFNSYPLTFGGGTKVEIK

Legend:
[1] = molecular target: T1, PSMA-expressing LNCaP cells (Homo sapiens, UniProt Q04609); test: Binding specificity by flow cytometry; settings: FITC-labeled anti-human IgG detection, different antibody concentrations
T1 construct: host or cells: LNCaP human prostate cancer cells
T1 sequence (Q04609 whole entry): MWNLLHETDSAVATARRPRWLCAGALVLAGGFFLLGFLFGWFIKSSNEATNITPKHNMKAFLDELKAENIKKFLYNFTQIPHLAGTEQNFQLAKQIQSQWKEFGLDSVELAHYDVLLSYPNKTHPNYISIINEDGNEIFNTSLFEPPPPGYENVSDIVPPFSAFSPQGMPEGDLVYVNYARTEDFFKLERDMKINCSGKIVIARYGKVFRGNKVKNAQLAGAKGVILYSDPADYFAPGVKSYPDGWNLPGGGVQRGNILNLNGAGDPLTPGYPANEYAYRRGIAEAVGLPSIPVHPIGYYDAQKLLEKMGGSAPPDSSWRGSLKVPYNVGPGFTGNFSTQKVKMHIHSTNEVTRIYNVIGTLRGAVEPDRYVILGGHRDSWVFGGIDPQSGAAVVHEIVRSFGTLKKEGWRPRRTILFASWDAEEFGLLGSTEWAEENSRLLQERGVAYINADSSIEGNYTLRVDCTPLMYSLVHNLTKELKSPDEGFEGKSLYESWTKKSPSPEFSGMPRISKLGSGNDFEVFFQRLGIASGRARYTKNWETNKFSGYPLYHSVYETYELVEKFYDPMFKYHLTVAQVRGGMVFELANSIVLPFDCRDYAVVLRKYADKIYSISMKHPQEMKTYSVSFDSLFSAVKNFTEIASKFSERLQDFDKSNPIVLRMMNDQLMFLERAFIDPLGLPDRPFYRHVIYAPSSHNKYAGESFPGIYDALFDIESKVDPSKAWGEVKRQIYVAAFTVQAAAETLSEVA
Experimental: The human PSMA-expressing prostate cancer cell line LNCaP was used to determine the specificity of anti-PSMA human monoclonal antibodies by flow cytometry. Binding of the 2F5, 2A10, and 2C6 anti-PSMA human monoclonal antibodies was assessed by incubating the LNCaP cells with the anti-PSMA human monoclonal antibodies at different concentrations. The cells were washed and binding was detected with a FITC-labeled anti-human IgG Ab. Flow cytometric analyses were performed using a FACScan flow cytometry (Becton Dickinson, San Jose, Calif.). The human anti-PSMA monoclonal antibody 7F12 (as described in PCT Publication WO 03/064606) was used as a positive control and a non-PSMA specific isotype control antibody was used as a negative control. The results are depicted in FIG. 9.

[2] = molecular target: T2, PSMA immunopurified from LNCaP cells (Homo sapiens, UniProt Q04609); test: Binding specificity by ELISA; settings: antibody from 5 μg/ml, 1:2 serial dilutions
T2 construct: endogenous in cells; host or cells: LNCaP cells (protein immunopurified from them)
T2 sequence (Q04609 whole entry): as above
Experimental: A comparison of anti-PSMA antibodies on binding to immunopurified PSMA was performed by standard ELISA to examine the specificity of binding for PSMA.
PSMA was immunopurified from LNCaP cells and tested for binding against the anti-PSMA human monoclonal antibodies 1C3, 2A10, 2F5, and 2C6. Standard ELISA procedures were performed. The anti-PSMA human monoclonal antibodies were added at a concentration of 5 μg/ml and titrated down at 1:2 serial dilutions. Goat-anti-human IgG (kappa chain-specific) polyclonal antibody conjugated with horseradish peroxidase (HRP) was used as secondary antibody. The human anti-PSMA monoclonal antibody 7F12 was used as a positive control and a blank was used as a negative control.

| Molecule | binding to PSMA-expressing LNCaP cells [1] | binding to immunopurified PSMA [2] |
| --- | --- | --- |
| B1 | bound specifically; also recorded: binds the cell surface of PSMA-expressing LNCaP cells | bound with high specificity |
| B2 | bound specifically; also recorded: binds the cell surface of PSMA-expressing LNCaP cells | detectable but only low level binding |
| B3 |  | detectable but only low level binding |
